Experimental findings from paper PMC12520364, “UBXN7 facilitates SARS-CoV-2 replication via inhibiting the K48-linked ubiquitination of viral N protein” (PLOS Pathogens, 2025) are described below.

Assay [1] deals with T1, Purified recombinant His-N protein from E. coli (SARS-CoV-2, UniProt P0DTC9 1-419).
T1 construct: SARS-CoV-2 N protein, full-length N gene of NC_045512.2 in pET-28a(+); also called prokaryotic recombinant SARS-CoV-2 N protein; not shown: 6xHis, N-terminal, kept
As to the kind of experiment: pull-down. Particulars: both partners purified.

Assay [2] addresses T2, Fc-tagged SARS-CoV-2 N protein (SARS-CoV-2, UniProt P0DTC9 1-419).
T2 construct: also called N-Fc; SARS-CoV-2 N-Fc
As to the kind of experiment: pull-down. To be noted: both partners purified.

B1: purified HA-UBXN7 (natural protein, UniProt O94888 1-489, looked up)
chain: MAAHGGSAASSALKGLIQQFTTITGASESVGKHMLEACNNNLEMAVTMFLDGGGIAEEPSTSSASVSTVRPHTEEEVRAPIPQKQEILVEPEPLFGAPKRRRPARSIFDGFRDFQTETIRQEQELRNGGAIDKKLTTLADLFRPPIDLMHKGSFETAKECGQMQNKWLMINIQNVQDFACQCLNRDVWSNEAVKNIIREHFIFWQVYHDSEEGQRYIQFYKLGDFPYVSILDPRTGQKLVEWHQLDVSSFLDQVTGFLGEHGQLDGLSSSPPKKCARSESLIDASEDSQLEAAIRASLQETHFDSTQTKQDSRSDEESESELFSGSEEFISVCGSDEEEEVENLAKSRKSPHKDLGHRKEENRRPLTEPPVRTDPGTATNHQGLPAVDSEILEMPPEKADGVVEGIDVNGPKAQLMLRYPDGKREQITLPEQAKLLALVKHVQSKGYPNERFELLTNFPRRKLSHLDYDITLQEAGLCPQETVFVQERN
notes: May be the same construct as m1 (pCAGGS-HA); source: purified
Take B1: the binding result in assay [1] is “binds”.

B2: Purified recombinant UBXN7-his protein (natural protein, UniProt O94888 1-489, looked up)
chain: MAAHGGSAASSALKGLIQQFTTITGASESVGKHMLEACNNNLEMAVTMFLDGGGIAEEPSTSSASVSTVRPHTEEEVRAPIPQKQEILVEPEPLFGAPKRRRPARSIFDGFRDFQTETIRQEQELRNGGAIDKKLTTLADLFRPPIDLMHKGSFETAKECGQMQNKWLMINIQNVQDFACQCLNRDVWSNEAVKNIIREHFIFWQVYHDSEEGQRYIQFYKLGDFPYVSILDPRTGQKLVEWHQLDVSSFLDQVTGFLGEHGQLDGLSSSPPKKCARSESLIDASEDSQLEAAIRASLQETHFDSTQTKQDSRSDEESESELFSGSEEFISVCGSDEEEEVENLAKSRKSPHKDLGHRKEENRRPLTEPPVRTDPGTATNHQGLPAVDSEILEMPPEKADGVVEGIDVNGPKAQLMLRYPDGKREQITLPEQAKLLALVKHVQSKGYPNERFELLTNFPRRKLSHLDYDITLQEAGLCPQETVFVQERN
notes: The host of UBXN7-his is therefore told in two ways; also called His-tagged UBXN7; source: HEK293F, transfected, purified (Ni-NTA, Superdex200)
As to B2, the binding result in assay [2] is “binds”.
